Consider ten molecules from patent US20120114652A1 (AbbVie / Abbott, published 2012).

Holding throughout (assay): cell-based or functional assay
One experiment addresses cynomolgus PAI-1 (cynomolgus, UniProt P05121 24-402 (human entry), limits assumed).
The next experiment addresses T1, rat PAI-1 (rat, UniProt P20961 24-402).
T1 sequence: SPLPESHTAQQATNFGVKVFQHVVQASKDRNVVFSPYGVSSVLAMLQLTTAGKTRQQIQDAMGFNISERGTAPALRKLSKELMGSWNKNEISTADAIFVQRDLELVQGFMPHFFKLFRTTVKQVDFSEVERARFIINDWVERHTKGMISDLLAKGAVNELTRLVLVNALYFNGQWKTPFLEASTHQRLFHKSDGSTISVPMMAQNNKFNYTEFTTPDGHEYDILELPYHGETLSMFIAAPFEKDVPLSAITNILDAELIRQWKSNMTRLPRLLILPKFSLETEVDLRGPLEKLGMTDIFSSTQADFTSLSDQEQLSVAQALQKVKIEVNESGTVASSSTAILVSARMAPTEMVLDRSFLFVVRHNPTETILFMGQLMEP

A further experiment addresses T2, mouse PAI-1 (mouse, UniProt P22777 24-401).
T2 sequence: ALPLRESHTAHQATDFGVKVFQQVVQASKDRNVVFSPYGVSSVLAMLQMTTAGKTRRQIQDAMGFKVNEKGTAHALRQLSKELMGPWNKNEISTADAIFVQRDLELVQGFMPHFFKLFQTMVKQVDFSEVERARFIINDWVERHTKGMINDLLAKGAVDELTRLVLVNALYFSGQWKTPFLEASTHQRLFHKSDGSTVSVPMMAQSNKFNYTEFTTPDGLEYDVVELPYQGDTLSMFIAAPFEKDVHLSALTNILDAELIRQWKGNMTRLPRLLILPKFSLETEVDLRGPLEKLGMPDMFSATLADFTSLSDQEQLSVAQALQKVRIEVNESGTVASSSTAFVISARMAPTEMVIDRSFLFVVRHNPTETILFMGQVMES

The target of experiment [1] is human PAI-1, active, wild-type, non-glycosylated (E. coli-derived) (human, UniProt P05121 24-402).

B1: Antibody 11, scFv (scFv, V domains shown)
VH: QVQLQQSGAEVKKPGSSVKVSCKASGGTFSSYAISWMRQAPGQGLEWMGGIIPIFGTANYAQKFQGRVTITADESTSTAYMELSGLRSEDTAVYYCAREKRQWLEGHFDYWGRGTPVTVSS
VL: DIQMIQSPSFLSASTGDRVTITCQASEGIYHELAWYQQKPGKAPKLLIYRASSLASGAPSRFSGSGSGTDFTLTISSLQPDDFATYYCQQYSNYPLTFGGGTKLEIK
Take B1: in the experiment with cynomolgus PAI-1, the IC50 chromogenic was 43.8 nM and the IC50 ratio cyno/human is 0.4. In the experiment with rat PAI-1, the IC50 chromogenic came out at 59.5 nM and the IC50 ratio rat/human came out at 0.6. Moreover, in the experiment with mouse PAI-1, the IC50 chromogenic worked out at 33.6 nM and the IC50 ratio mouse/human came to 0.3. Further, the IC50 chromogenic in experiment [1] amounted to 102 nM.

B2: Antibody 24, scFv (scFv, V domains shown)
VH: QVQLQQSGAEVKKPGSSVKVSCKASGGTFSSYAISWVRQAPGQGLEWMGGIIPTFVTANYAQKFQGRVSITADESTSTAYMELSGLRSEDTAVYYCAREKRQWLEGHFDYWGRGTPVTVSS
VL: DIQMTQSPSFLSASIGDRVTITCRASEGIYHALAWYQQKPGKAPKLLIYRASSLASGAPSRFSGSGSGTDFTLTISSLQPDDFATYYCQQYSNYPLTFGGGTKLEIK
As to B2, in the experiment with cynomolgus PAI-1, the IC50 chromogenic was 1.1 nM and the IC50 ratio cyno/human amounted to 0.3. In addition, in the experiment with rat PAI-1, the IC50 chromogenic stood at 127 nM and the IC50 ratio rat/human was determined as 39.3. Further, in the experiment with mouse PAI-1, the IC50 chromogenic came to 140 nM and the IC50 ratio mouse/human turned out to be 43.3. In experiment [1], this molecule had an IC50 chromogenic of 3.2 nM.

B3: Antibody 21, scFv (scFv, V domains shown)
VH: PVQLQQSGAEVKKPGSSVKVSCKASGGTFSSYAISWVRQAPGQGLEWMGGIIPTFGTANYAQKFQGRVTITADESTSTAYMELSGLRSEDTAVYYCAREKRQWLEGHFDYWGRGTPVTVSS
VL: DIQMAQSPSFLSASIGDRVTITCRASEGIYHNLAWYQQKPGKAPKLLIYRASSLASGAPSRFSGSGSGTDFTLTISSLQPDDFATYYCQQYSNYPLTFGGGTKLEIK
As for B3, the IC50 chromogenic with cynomolgus PAI-1 is 1.6 nM; with rat PAI-1, 49.2 nM; with mouse PAI-1, 32.2 nM; in experiment [1] it was 4.1 nM. Besides, the IC50 ratio cyno/human with cynomolgus PAI-1 came out at 0.4. For the same molecule, the IC50 ratio rat/human in the experiment with rat PAI-1 turned out to be 12. Also, the IC50 ratio mouse/human in the experiment with mouse PAI-1 amounted to 7.9.

B4: Antibody 13, scFv (scFv, V domains shown)
VH: QVQLQQSGAEVKKPGSSVKVSCKASGGTFSSYAISWVRQAPGQGLEWMGGIIPTFGTANYAQKFQGRVTITADESTSTAYMELSDLRSEDTAVYYCAREKRQWLEGHFDYWGRGTPVTVSS
VL: DIQMTQSPSFLSASIGDRVTITCRASEGIYHSLAWYQQKPGKAPKLLIYRASSLASGAPSRFSGSGSGTDFTLTISSLQPDDFATYYCQQYSNYPLTFGGGTKLEIK
B4: in the experiment with cynomolgus PAI-1, the IC50 chromogenic was 1.2 nM and the IC50 ratio cyno/human is 0.4. Also, in the experiment with rat PAI-1, the IC50 chromogenic was found to be 140 nM and the IC50 ratio rat/human was determined as 48.6. In addition, in the experiment with mouse PAI-1, the IC50 chromogenic was 247 nM and the IC50 ratio mouse/human was found to be 85.8. In experiment [1], this molecule returned an IC50 chromogenic of 2.9 nM.

B5: Antibody 23, scFv (scFv, V domains shown)
VH: QVQLQQSGAEVKKPGSSVKVSCKASGGTFSSYAISWVRQAPGQGLEWMGGIIPTFGTANYAQKFQSRVTITADESTSTAYMELSGLRSEDTAVYYCAREKRQWLEGHFDYWGRGTPVTVSS
VL: DIQMTQSPSFLSASIGDRVTITCRASEGIYHSLAWYQQKPGKAPKLLIYRASSLASGAPSRFSGSGSGTDFTLTISSLQPDDFATYYCQQYSNYPLTFGGGTKLEIK
On to B5, for which, in the experiment with cynomolgus PAI-1, the IC50 chromogenic was determined as 0.5 nM and the IC50 ratio cyno/human was 0.3. For the same molecule, in the experiment with rat PAI-1, the IC50 chromogenic was 376 nM and the IC50 ratio rat/human came out at 229. Besides, in the experiment with mouse PAI-1, the IC50 chromogenic was determined as 376 nM and the IC50 ratio mouse/human is 229. The same molecule registered an IC50 chromogenic in experiment [1] of 1.6 nM.

B6: Antibody 17, scFv (scFv, V domains shown)
VH: QVQLQQSGAEVKKPGSSVKVSCKASGGTFSSYAISWVRQAPGQGLEWMGGIIPTFGTANYAQKFQGRVTITADESTSTAYMELSGLRSEDTAVYYCAREKRQWLEGHFDYWGRGTPVTVSS
VL: DIQMTQSPSFLSASIGDRVTITCRASEGIYHELAWYQQKPGKAPKLLIYRASSLASGAPSRFSGSGSGTDFTLTISSLQPDDFATYYCQQYSNYPLTFGGGTKLEIK
Regarding B6, in the experiment with cynomolgus PAI-1, the IC50 chromogenic turned out to be 41.5 nM and the IC50 ratio cyno/human came to 0.6. In addition, in the experiment with rat PAI-1, the IC50 chromogenic stood at 24.9 nM and the IC50 ratio rat/human was 0.3. Also, in the experiment with mouse PAI-1, the IC50 chromogenic was 26.2 nM and the IC50 ratio mouse/human came out at 0.4. In experiment [1], the IC50 chromogenic turned out to be 71.5 nM.

B7: Antibody 22, scFv (scFv, V domains shown)
VH: QVQLQQSGAEVKKPGSSVKVSCKASGGTFSGYAISWVRQAPGQGLEWMGGIIPTFGTANYSQKFQGRVTITADESTSTAYMELSGLRSEDTAVYYCAREKRQWLEGHFDYWGRGTPVTVSS
VL: DIQMTQSLSFLSASIGDRVTITCRASEGIYHALAWYQQKPGKAPKLLIYRASSLASGAPSRFSGSGSGTDFTLTISSLQPDDFATYYCQQYSNYPLTFGGGTKLEIK
Turning to B7, in the experiment with cynomolgus PAI-1, the IC50 chromogenic turned out to be 1.5 nM and the IC50 ratio cyno/human came to 0.3. Also, in the experiment with rat PAI-1, the IC50 chromogenic stood at 406 nM and the IC50 ratio rat/human is 81.2. For the same molecule, in the experiment with mouse PAI-1, the IC50 chromogenic was found to be 413 nM and the IC50 ratio mouse/human was 82.6. The molecule also yielded an IC50 chromogenic in experiment [1] of 5 nM.

B8: Antibody 12, scFv (scFv, V domains shown)
VH: QVQLQQSGAEVKKPGSSVKVSCKASGGTFSSYAISWVRQAPGQGLEWMGGIIPTFPTANYAQKFQGRVTITADESTSTAYMELSGLRSEDTAVYYCAREKRQWLEGHFDYWGRGTPVTVSS
VL: DIQMTQSPSFLSASIGDRVTITCRASEGIYHNLAWYQQKPGKAPKLLIYRASSLASGAPSRFSGSGSGTDFTLTISSLQPDDFATYYCQQYSNYPLTFGGGTKLEIK
Consider B8, for which, in the experiment with cynomolgus PAI-1, the IC50 chromogenic stood at 0.6 nM and the IC50 ratio cyno/human stood at 0.3. Besides, in the experiment with rat PAI-1, the IC50 chromogenic turned out to be 78.2 nM and the IC50 ratio rat/human is 34.4. For the same molecule, in the experiment with mouse PAI-1, the IC50 chromogenic worked out at 27.8 nM and the IC50 ratio mouse/human turned out to be 12.2. The same molecule showed an IC50 chromogenic in experiment [1] of 2.3 nM.

B9: Antibody 19, scFv (scFv, V domains shown)
VH: QVQLQQSGAEVKKPGSSVKVSCKASGGTFSSYAISWVRQAPGQGLEWMGGIIPIFDTANYAQKFQGRVTITADESTSTAYMELSGLRSEDTAVYYCARERRQWLEGHFDYWGRGTPVTVSS
VL: DIRMTQSPSFLSASIGDRVTITCRASEGIYHELAWYQQKPGKAPKLLIYRASSLASGAPSRFSGSGSGTEFTLTISSLQPDDFATYYCQQYSNYPLTFGGGTKLEIK
For the molecule B9, in the experiment with cynomolgus PAI-1, the IC50 chromogenic turned out to be 10.8 nM and the IC50 ratio cyno/human is 0.4. For the same molecule, in the experiment with rat PAI-1, the IC50 chromogenic was 7.9 nM and the IC50 ratio rat/human was found to be 0.3. In addition, in the experiment with mouse PAI-1, the IC50 chromogenic came to 6.4 nM and the IC50 ratio mouse/human was 0.2. Besides, in experiment [1], the IC50 chromogenic was determined as 26 nM.

B10: Antibody 25, scFv (scFv, V domains shown)
VH: QVQLQQSGAEVKKPGSSVKVSCKASGGTFSSYAISWVRQAPGQGLEWMGGIIPTFGTANYAQKFQGRVTITADESTSTAYMELSGLRSEDTAVYYCARERRQWLEGHFDYWGQGTPVTVSS
VL: DIQMTQSPSFLSASIGDRVTITCRASESIYHELAWYQQKPGKAPKLLIYKASSLASGAPSRFSGSGSGTAFTLTISSLQPDDFATYYCQQYSNYPLTFGGGTKLEIK
Take B10: in the experiment with cynomolgus PAI-1, the IC50 chromogenic was found to be 4.6 nM and the IC50 ratio cyno/human amounted to 0.4. In the experiment with rat PAI-1, the IC50 chromogenic is 322 nM and the IC50 ratio rat/human was 24.6. Further, in the experiment with mouse PAI-1, the IC50 chromogenic turned out to be 172 nM and the IC50 ratio mouse/human is 13.1. In addition, the IC50 chromogenic in experiment [1] is 13.1 nM.
